Laboratory results from article doi:10.1101/2025.05.13.653810, “Spatial control of secretory vesicle targeting by the Ync13–Rga7–Rng10 complex during cytokinesis” (bioRxiv, 2025).

Target: T1, MBP-Ync13–6xHis (S. pombe, UniProt O13683 1-1237)
T1 construct: Ync13, the S. pombe homolog of Munc13/UNC-13; full-length cDNA between MBP-TEV-GGSGGS and the 6His tag of pET21a; MBP is followed by a TEV site and a GGSGGS linker; also called MBP-Ync13–6His; not shown: MBP, N-terminal, kept; His6, C-terminal, kept
T1 sequence (looked up): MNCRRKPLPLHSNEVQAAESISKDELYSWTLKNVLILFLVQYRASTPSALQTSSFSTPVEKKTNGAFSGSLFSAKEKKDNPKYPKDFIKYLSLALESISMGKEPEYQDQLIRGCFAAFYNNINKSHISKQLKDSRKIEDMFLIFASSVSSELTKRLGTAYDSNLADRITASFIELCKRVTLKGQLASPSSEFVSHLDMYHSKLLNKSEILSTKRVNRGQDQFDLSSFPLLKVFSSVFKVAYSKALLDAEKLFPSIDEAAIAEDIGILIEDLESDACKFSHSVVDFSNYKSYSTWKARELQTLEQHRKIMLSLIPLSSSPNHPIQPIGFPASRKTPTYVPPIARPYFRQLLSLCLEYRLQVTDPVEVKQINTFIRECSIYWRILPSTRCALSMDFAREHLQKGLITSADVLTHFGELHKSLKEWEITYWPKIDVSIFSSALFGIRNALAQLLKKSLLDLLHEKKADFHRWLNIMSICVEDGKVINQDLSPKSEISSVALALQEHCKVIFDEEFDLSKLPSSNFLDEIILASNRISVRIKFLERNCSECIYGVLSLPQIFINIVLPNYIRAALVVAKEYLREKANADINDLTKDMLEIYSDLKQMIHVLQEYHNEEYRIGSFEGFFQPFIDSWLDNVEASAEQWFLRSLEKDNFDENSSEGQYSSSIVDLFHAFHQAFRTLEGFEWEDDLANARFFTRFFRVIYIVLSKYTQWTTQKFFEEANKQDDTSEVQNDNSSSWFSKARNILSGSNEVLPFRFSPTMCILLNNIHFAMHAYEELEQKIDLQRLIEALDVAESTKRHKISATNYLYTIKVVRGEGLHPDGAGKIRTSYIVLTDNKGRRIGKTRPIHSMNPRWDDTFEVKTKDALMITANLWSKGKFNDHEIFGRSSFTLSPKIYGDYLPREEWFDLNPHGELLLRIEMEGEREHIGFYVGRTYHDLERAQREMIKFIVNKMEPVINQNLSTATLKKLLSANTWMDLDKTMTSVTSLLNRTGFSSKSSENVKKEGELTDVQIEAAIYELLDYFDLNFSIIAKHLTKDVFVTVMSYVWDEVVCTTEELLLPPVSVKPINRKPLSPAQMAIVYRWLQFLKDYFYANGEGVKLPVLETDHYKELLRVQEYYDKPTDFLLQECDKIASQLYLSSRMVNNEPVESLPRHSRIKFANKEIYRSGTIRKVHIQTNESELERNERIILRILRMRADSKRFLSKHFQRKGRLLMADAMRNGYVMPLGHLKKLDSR
Experiment: supernatant depletion assay; Rga7–6xHis at 4 μM titrated with MBP-Ync13–6xHis immobilized on Cobalt beads; beads pelleted at 16,000 g, supernatants on Coomassie-stained SDS-PAGE, bound fraction fitted
Settings: both partners purified

Kd: 10 µM
B1: Rga7–6xHis (natural protein, S. pombe, UniProt O94466 1-695, looked up)
chain: MLSAPSSSTTPASPPTSPPNTTSSDDFAVLKEPKVEAILNSELGLAILNDRIKDYLLTCKELAGFFKKRSILEEESGKNLQKLAKSYLETFQSKHHSPQSFSASVITSMEIHEQLANHSLTLQKTLSAFSDQVIEFHKNAERKRKSIKEYAKKQENAYLEAVMQMDKSKSRFKGAETEYNRALDNKNTGDSQKKVGFFKPKSNAQLTKLEDEARLKAENAESDMHSKIENAQNVQKQLLCIHRPNYIKQFFSLQREIESSLIANYLRYTKLCESNTLLNGLTIRPQKPTPTNCGLQHALDNINANTDFVQYVLHASIKHEDNKNPTDASKTKIIQPPSSYGTGSSAGKTNPPVNPTIKVTAAIPSPLQNTNPAPSTFPNPSVASPAFPNSSTSNPSTAPASASPLASTLKPSTANDTNGSSSSSSSNPRTSSPLASNAENKPPVAQQSPPVLLPTLPPIQTTTIQTSREVAPPPSSINSNRAASPFRPTSVSPQPSSPTKSLLFGARLDAIILREHSNIPNIVMQCTSQVENFGLNLQGIYRVPSSSARVNMLRSQFENNPLLQLHTPEDYENDVHAVADLLKIFFRELREPLIPDNHQRDFIDAGNVEDESRRRDAVHRAINDLPDANYSTIRHLTIHLAKIKENSDVNKMSTNNLAIIWGPTIIKQATIPEISSFSRTIEILIDYCFTIFDYD
notes: Rga7, F-BAR protein and Rho2 GAP of S. pombe; full length, cloned into pET21a between the T7 tag and the 6His tag; also called Rga7–6His; not shown: His6, C-terminal, kept
